Biological target: T1, CD20 antigen on the surface of Daudi and Raji B lymphoma cells (human, UniProt P11836 1-297)
T1 sequence (looked up): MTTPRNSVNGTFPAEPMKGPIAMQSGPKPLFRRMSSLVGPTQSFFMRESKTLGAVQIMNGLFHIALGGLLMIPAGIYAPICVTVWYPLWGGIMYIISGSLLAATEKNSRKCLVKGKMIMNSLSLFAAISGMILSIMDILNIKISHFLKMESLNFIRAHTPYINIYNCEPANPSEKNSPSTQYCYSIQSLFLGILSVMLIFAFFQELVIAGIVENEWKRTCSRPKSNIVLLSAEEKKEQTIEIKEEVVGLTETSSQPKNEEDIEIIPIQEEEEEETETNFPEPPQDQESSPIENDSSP
Assay: cell-based or functional assay

- EC50 (read off the curve): ADCC, percentage of cell lysis (LDH release), NK92/CD16a (158 V/V) effector cells, CD20-bearing B lymphoma target cells: ~0.5 ng/mL
B1: recombinant afucosylated anti-human CD20 monoclonal antibody prepared in Example 2 (expressed in the milk of a transgenic cow) (antibody, human IgG1, kappa)
heavy: not shown
light: QIVLSQSPAILSASPGEKVTMTCRASSSVSYIHWFQQKPGSSPKPWIYATSNLASGVPVRFSGSGSGTSYSLTISRVEAEDAATYYCQQWTSNPPTFGGGTKLEIKRTVAAPSVFIFPPSDEQLKSGTASVVCLLNNFYPREAKVQWKVDNALQSGNSQESVTEQDSKDSTYSLSSTLTLSKADYEKHKVYACEVTHQGLSSPVTKSFNRGEC
modifications: N-linked sugar chain at Asn-320, mainly afucosylated glycoform (80% to 100%), of which the G2 glycoform is 30% to 100%

Reference: patent US20200270358A1 (BEIJING GEFUCURE BIOTECHNOLOGY, published 2020)
